Here are results for one molecule from patent US12564623B2, “Methods and compositions for treating cancer” (The University of Chicago, priority 2017, dated 2026).

For one assay, the target named is T1, CD95 (Homo sapiens, UniProt P25445).
T1 sequence (P25445 26-335): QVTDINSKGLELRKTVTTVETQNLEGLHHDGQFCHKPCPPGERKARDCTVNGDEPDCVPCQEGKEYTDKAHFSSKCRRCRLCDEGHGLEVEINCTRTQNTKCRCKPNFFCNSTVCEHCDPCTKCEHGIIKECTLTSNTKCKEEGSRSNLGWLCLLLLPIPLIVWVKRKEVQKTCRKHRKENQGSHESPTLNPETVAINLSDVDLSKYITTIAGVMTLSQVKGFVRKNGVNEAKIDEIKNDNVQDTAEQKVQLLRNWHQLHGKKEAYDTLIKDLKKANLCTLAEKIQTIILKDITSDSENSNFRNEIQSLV
In words: CD95 loss and immunoreactivity in ELANE-treated cancer cells. Also on record: endogenous in cells; host or cells: Mel888 melanoma cells. Type of assay: cell-based. Here is the method:
ELANE lowers CD95 levels in cancer cells and reduced CD95 levels are associated with apoptosis. (FIG. 8A) Recombinant proteins (1 μg) corresponding to full length CD95 (FL-CD95), N-terminal domain of CD95 (amino acids 1-173; N-CD95), or C-terminal domain of CD95 (amino acids 157-320; C-CD95) were inbuated with ELANE (0.05 μg) or vehicle (Veh) for 2 hrs at 37° C. Degradation was assessed by SDS-PAGE followed by coomassie blue staining. […] (FIG. 8C) Cancer cells were treated with ELANE (50 nM) for 1 hr, fixed in 10% formalin, and stained with N- or C-terminal specific anti-CD95 antibodies (green). Hoechst 33342 solution was used for nuclear staining (blue). Images were taken under 40×.
ELANE selectively cleaves the C-terminal domain of CD95. The CD95 pathway is essential for the survival of a wide range of cancer cells, but largely dispensable for normal cell survival (Adachi et al., Nat. Genet., 1995; Karray et al., J. Immunol., 2004). CD95 function can be modulated by proteolysis (Strand et al., Oncogene, 2004). […] Degradation was assessed by SDS-PAGE followed by staining with coomassie blue. […] Mel888 cancer cells were treated with ELANE (50 nM) for various times, and CD95 degradation was assessed by western blot analysis with a C-terminal specific anti-CD95 antibody.

Another assay deals with MDA-MB-231 cells. In words: Cancer cell killing, Calcein AM staining. Type of assay: cell-based, human. As for the experimental part: Approach to identify the factor(s) mediating selective killing. A quantitative cancer cell killing assay was developed to track the bioactive factor(s). MDA-MB-231 cells were treated with various doses of PMN media and cell viability was assessed by Calcein AM live cells fluorescence staining. […] (FIG. 3B) PMN media was passed through a 0.22 μm filter, and protein concentration and killing activity on MDA-MB-231 cancer cells was measured in both pre- and post-filter solutions. […] ELANE and ECP levels in PMN media pre- and post-filtration were quantified by mass spectrometry (spectral counts).
To determine if ELANE and/or ECP were responsible, the inventors (1) immuno-depleted ELANE or ECP from PMN media; (2) treated cancer or normal cells with purified native ELANE or ECP from commercial sources. (FIG. 6A) ELANE or ECP were depleted from PMN media by immunoprecipitation; depletion was confirmed by western blotting. PMN media pre-depletion=Orig. and post-depletion=FT. Non-specific IgG was used as a control. (FIG. 6B) MDA-MB-231 cells or human monocyte-derived macrophages (HMDMs) were treated with purified native ELANE or ECP at various doses for 24h, and killing was assessed by Calcein AM staining. (FIG. 6C) MDA-MB-231 cells and HMDMs were treated with levels of ELANE (0.25 μg/mL) or ECP (0.05 μg/mL) that were present in the PMN media, alone or in combination for 24 hrs, and killing was examined by Calcein AM staining.
High doses of ECP or ELANE can kill cancer cells. The inventors sought to determine whether adding purified human ECP (Lee Biosolutions), human ELANE (Abcam), human DEFA1 (Abcam), human ANXA6 (R&D Systems) or human CASP3 (Abcam) individually could kill cancer cells without killing non-cancer cells. Increasing doses of each protein were added to MDA-MB-231 cells for 5h or human monocyte-derived macrophages (HMDMs) for 24 h and cell viability was determined by Calcein-AM.
ELANE and ECP synergize to selectively kill cancer cells. MDA-MB-231 and human monocyte-derived macrophages (HMDMs) were treated with levels of ELANE (0.25 μg/mL) or ECP (0.05 μg/mL) that were present in the PMN media, alone or in combination for 24 hrs. killing was examined by Calcein AM staining.
Combining chemotherapeutics and neutrophil conditioned media enhances the killing of human triple negative breast cancer cells. MDA-MB-231 cells were treated with neutrophil conditioned media (Neu-CM; 4 μg/mL), doxorubicin (DOX; 0.3 μM), or paclitaxel (PTX; 3 nM) for 4h, individually or in combination, and cell viability was assessed by Calcein-AM.
Other serine proteases cleave the C-terminal domain of CD95, and the ability to cleave the C-terminal domain is associated with cancer cell killing. (FIG. 12A) Full length recombinanat CD95 protein was incubated with various serine proteases (human ELANE (80 nM), PR3 (80 nM), CSTG (80 nM), PPE (80 nM), mouse ELANE (80 nM), rat ELANE (500 nM), GZMB (80 nM), or Trypsin (250 nM)), or other types of proteases (CTSC (80 nM); or MMP7 (80 nM), MMP9 (80 nM), CTSD (80 nM) not shown) at 37° C. for 2 hours. Degradation was assessed by SDS-PAGE followed by coomassie blue staining. (FIG. 12B) MDA-MB-231 cancer cells were incubated with various proteases for 24 hrs. Cell viability was assessed by Calcein AM staining.
(FIG. 13A) MDA-MB-231 cancer cells were treated with various doses of purified native ELANE or purified native porcine pancreatic elastase (PPE) for 6 h, and killing was assessed by Calcein AM staining. (FIG. 13B). Purified native ELANE or purified native PPE was incubated with different concentrations of alpha-1-anti-trypsin (A1AT) for 15 mins. Catalytic activity was measured using a chromogenic substrate assay. Cancer cell killing capability was determined by treating MDA-MB-231 cancer cells with ELANE or PPE in the presence or absence of A1AT for 6h, followed by Calcein AM staining. (FIG. 13C) Catalytic activity was measured using a chromogenic substrate assay. […]

B1: neutrophil elastase (protein, listed as Homo sapiens)
chain: MTLGRRLACLFLACVLPALLLGGTALASEIVGGRRARPHAWPFMVSLQLRGGHFCGATLIAPNFVMSAAHCVANVNVRAVRVVLGAHNLSRREPTRQVFAVQRIFENGYDPVNLLNDIVILQLNGSATINANVQVAQLPAQGRRLGNGVQCLAMGWGLLGRNRGIASVLQELNVTVVTSLCRRSNVCTLVRGRQAGVCFGDSGSPLVCNGLIHGIASFVRGGCASGLYPDAFAPVAQFVNWIDSIIQRSEDNPCPHPRDPDPASRTH
notes: purified native ELANE
B1: the “CD95 immunoreactivity of cancer cells” value in the assay with CD95 (50 nM, 1 hr) is reported as “lose immunoreactivity to a C-terminal specific CD95 antibody, but not to an N-terminal specific CD95 antibody”. Moreover, the “CD95 at the cell surface” value with CD95 (incubating cancer cells with ELANE) was “CD95 loss from the cell surface”. The “cancer cell killing activity of purified protein” value in the assay with MDA-MB-231 cells (increasing doses, 5h) is “highest cancer cell killing activity”. The “toxicity to cancer cells, ELANE versus PPE” value in the assay with MDA-MB-231 cells (various doses, 6 h) is given as “equally toxic to cancer cells”.
